Assays:
[1] = molecular target: Mycobacterium smegmatis MSMEG_6251 soluble domain (msTiME-SD) (M. smegmatis mc^2155); assay: crystal structure
[2] = molecular target: Mycobacterium tuberculosis Rv3705c soluble domain (mtTiME-SD) (M. tuberculosis H37Rv); assay: SEC-MALS

Substance	stoichiometry N [1]	stoichiometry N [2]
Mycobacterium smegmatis MSMEG_6251 soluble domain (msTiME-SD) (domain or fragment)	8	–
Mycobacterium tuberculosis Rv3705c soluble domain (mtTiME-SD) (domain or fragment)	–	16
